First the molecules themselves.
B1: human IgG2 anti-mouse CD40 surface displayed antibody, P271G/P331T (antibody, name in EU numbering)
light chain (with the P2A rest): DTVLTQSPALAVSPGERVTISCRASDSVSTLMHWYQQKPGQQPKLLIYLASHLESGVPARFSGSGSGTDFTLTIDPVEADDTATYYCQQSWNDPWTFGGGTKLELKRTVAAPSVFIFPPSDEQLKSGTASVVCLLNNFYPREAKVQWKVDNALQSGNSQESVTEQDSKDSTYSLSSTLTLSKADYEKHKVYACEVTHQGLSSPVTKSFNRGECGSGATNFSLLKQAGDVEENPG
heavy chain: EVQLVESDGGLVQPGRSLKLPCAASGFTFSDYYMAWVRQAPTKGLEWVASISYDGSSTYYRDSVKGRFTISRDNAKSTLYLQMDSLRSEDTATYYCGRHSSYFDYWGQGVMVTVSSASTKGPSVFPLAPCSRSTSESTAALGCLVKDYFPEPVTVSWNSGALTSGVHTFPAVLQSSGLYSLSSVVTVPSSNFGTQTYTCNVDHKPSNTKVDKTVERKCCVECPPCPAPPVAGPSVFLFPPKPKDTLMISRTPEVTCVVVDVSHEDGEVQFNWYVDGVEVHNAKTKPREEQFNSTFRVVSVLTVVHQDWLNGKEYKCKVSNKGLPATIEKTISKTKGQPREPQVYTLPPSREEMTKNQVSLTCLVKGFYPSDIAVEWESNGQPENNYKTTPPMLDSDGSFFLYSKLTVDKSRWQQGNVFSCSVMHEALHNHYTQKSLSLSPGKLEPPPSTVSNMATVAVLVVLGAAIVTGAVVAFVMKMRRRNTGGKGGDYALAPGSQTSDLSLPDCKVMVHDPHSLA
notes: m1 with these Fc mutations (Eu numbering); copies: 2 + 2
B2: human IgG2 anti-mouse CD40 surface displayed antibody, P271G/S298G (antibody, name in EU numbering)
light chain (with the P2A rest): DTVLTQSPALAVSPGERVTISCRASDSVSTLMHWYQQKPGQQPKLLIYLASHLESGVPARFSGSGSGTDFTLTIDPVEADDTATYYCQQSWNDPWTFGGGTKLELKRTVAAPSVFIFPPSDEQLKSGTASVVCLLNNFYPREAKVQWKVDNALQSGNSQESVTEQDSKDSTYSLSSTLTLSKADYEKHKVYACEVTHQGLSSPVTKSFNRGECGSGATNFSLLKQAGDVEENPG
heavy chain: EVQLVESDGGLVQPGRSLKLPCAASGFTFSDYYMAWVRQAPTKGLEWVASISYDGSSTYYRDSVKGRFTISRDNAKSTLYLQMDSLRSEDTATYYCGRHSSYFDYWGQGVMVTVSSASTKGPSVFPLAPCSRSTSESTAALGCLVKDYFPEPVTVSWNSGALTSGVHTFPAVLQSSGLYSLSSVVTVPSSNFGTQTYTCNVDHKPSNTKVDKTVERKCCVECPPCPAPPVAGPSVFLFPPKPKDTLMISRTPEVTCVVVDVSHEDGEVQFNWYVDGVEVHNAKTKPREEQFNGTFRVVSVLTVVHQDWLNGKEYKCKVSNKGLPAPIEKTISKTKGQPREPQVYTLPPSREEMTKNQVSLTCLVKGFYPSDIAVEWESNGQPENNYKTTPPMLDSDGSFFLYSKLTVDKSRWQQGNVFSCSVMHEALHNHYTQKSLSLSPGKLEPPPSTVSNMATVAVLVVLGAAIVTGAVVAFVMKMRRRNTGGKGGDYALAPGSQTSDLSLPDCKVMVHDPHSLA
notes: as for B1
B3: human IgG2 anti-mouse CD40 surface displayed antibody, P271G/S298K (antibody, name in EU numbering)
light chain (with the P2A rest): DTVLTQSPALAVSPGERVTISCRASDSVSTLMHWYQQKPGQQPKLLIYLASHLESGVPARFSGSGSGTDFTLTIDPVEADDTATYYCQQSWNDPWTFGGGTKLELKRTVAAPSVFIFPPSDEQLKSGTASVVCLLNNFYPREAKVQWKVDNALQSGNSQESVTEQDSKDSTYSLSSTLTLSKADYEKHKVYACEVTHQGLSSPVTKSFNRGECGSGATNFSLLKQAGDVEENPG
heavy chain: EVQLVESDGGLVQPGRSLKLPCAASGFTFSDYYMAWVRQAPTKGLEWVASISYDGSSTYYRDSVKGRFTISRDNAKSTLYLQMDSLRSEDTATYYCGRHSSYFDYWGQGVMVTVSSASTKGPSVFPLAPCSRSTSESTAALGCLVKDYFPEPVTVSWNSGALTSGVHTFPAVLQSSGLYSLSSVVTVPSSNFGTQTYTCNVDHKPSNTKVDKTVERKCCVECPPCPAPPVAGPSVFLFPPKPKDTLMISRTPEVTCVVVDVSHEDGEVQFNWYVDGVEVHNAKTKPREEQFNKTFRVVSVLTVVHQDWLNGKEYKCKVSNKGLPAPIEKTISKTKGQPREPQVYTLPPSREEMTKNQVSLTCLVKGFYPSDIAVEWESNGQPENNYKTTPPMLDSDGSFFLYSKLTVDKSRWQQGNVFSCSVMHEALHNHYTQKSLSLSPGKLEPPPSTVSNMATVAVLVVLGAAIVTGAVVAFVMKMRRRNTGGKGGDYALAPGSQTSDLSLPDCKVMVHDPHSLA
notes: as for B1
B4: human IgG2 anti-mouse CD40 surface displayed antibody, P271G/S298E (antibody, name in EU numbering)
light chain (with the P2A rest): DTVLTQSPALAVSPGERVTISCRASDSVSTLMHWYQQKPGQQPKLLIYLASHLESGVPARFSGSGSGTDFTLTIDPVEADDTATYYCQQSWNDPWTFGGGTKLELKRTVAAPSVFIFPPSDEQLKSGTASVVCLLNNFYPREAKVQWKVDNALQSGNSQESVTEQDSKDSTYSLSSTLTLSKADYEKHKVYACEVTHQGLSSPVTKSFNRGECGSGATNFSLLKQAGDVEENPG
heavy chain: EVQLVESDGGLVQPGRSLKLPCAASGFTFSDYYMAWVRQAPTKGLEWVASISYDGSSTYYRDSVKGRFTISRDNAKSTLYLQMDSLRSEDTATYYCGRHSSYFDYWGQGVMVTVSSASTKGPSVFPLAPCSRSTSESTAALGCLVKDYFPEPVTVSWNSGALTSGVHTFPAVLQSSGLYSLSSVVTVPSSNFGTQTYTCNVDHKPSNTKVDKTVERKCCVECPPCPAPPVAGPSVFLFPPKPKDTLMISRTPEVTCVVVDVSHEDGEVQFNWYVDGVEVHNAKTKPREEQFNETFRVVSVLTVVHQDWLNGKEYKCKVSNKGLPAPIEKTISKTKGQPREPQVYTLPPSREEMTKNQVSLTCLVKGFYPSDIAVEWESNGQPENNYKTTPPMLDSDGSFFLYSKLTVDKSRWQQGNVFSCSVMHEALHNHYTQKSLSLSPGKLEPPPSTVSNMATVAVLVVLGAAIVTGAVVAFVMKMRRRNTGGKGGDYALAPGSQTSDLSLPDCKVMVHDPHSLA
notes: as for B1
B5: human IgG2 anti-mouse CD40 surface displayed antibody, P271G/S298N (antibody, name in EU numbering)
light chain (with the P2A rest): DTVLTQSPALAVSPGERVTISCRASDSVSTLMHWYQQKPGQQPKLLIYLASHLESGVPARFSGSGSGTDFTLTIDPVEADDTATYYCQQSWNDPWTFGGGTKLELKRTVAAPSVFIFPPSDEQLKSGTASVVCLLNNFYPREAKVQWKVDNALQSGNSQESVTEQDSKDSTYSLSSTLTLSKADYEKHKVYACEVTHQGLSSPVTKSFNRGECGSGATNFSLLKQAGDVEENPG
heavy chain: EVQLVESDGGLVQPGRSLKLPCAASGFTFSDYYMAWVRQAPTKGLEWVASISYDGSSTYYRDSVKGRFTISRDNAKSTLYLQMDSLRSEDTATYYCGRHSSYFDYWGQGVMVTVSSASTKGPSVFPLAPCSRSTSESTAALGCLVKDYFPEPVTVSWNSGALTSGVHTFPAVLQSSGLYSLSSVVTVPSSNFGTQTYTCNVDHKPSNTKVDKTVERKCCVECPPCPAPPVAGPSVFLFPPKPKDTLMISRTPEVTCVVVDVSHEDGEVQFNWYVDGVEVHNAKTKPREEQFNNTFRVVSVLTVVHQDWLNGKEYKCKVSNKGLPAPIEKTISKTKGQPREPQVYTLPPSREEMTKNQVSLTCLVKGFYPSDIAVEWESNGQPENNYKTTPPMLDSDGSFFLYSKLTVDKSRWQQGNVFSCSVMHEALHNHYTQKSLSLSPGKLEPPPSTVSNMATVAVLVVLGAAIVTGAVVAFVMKMRRRNTGGKGGDYALAPGSQTSDLSLPDCKVMVHDPHSLA
notes: as for B1
B6: human IgG2 anti-mouse CD40 surface displayed antibody, P271G/S298D (antibody, name in EU numbering)
light chain (with the P2A rest): DTVLTQSPALAVSPGERVTISCRASDSVSTLMHWYQQKPGQQPKLLIYLASHLESGVPARFSGSGSGTDFTLTIDPVEADDTATYYCQQSWNDPWTFGGGTKLELKRTVAAPSVFIFPPSDEQLKSGTASVVCLLNNFYPREAKVQWKVDNALQSGNSQESVTEQDSKDSTYSLSSTLTLSKADYEKHKVYACEVTHQGLSSPVTKSFNRGECGSGATNFSLLKQAGDVEENPG
heavy chain: EVQLVESDGGLVQPGRSLKLPCAASGFTFSDYYMAWVRQAPTKGLEWVASISYDGSSTYYRDSVKGRFTISRDNAKSTLYLQMDSLRSEDTATYYCGRHSSYFDYWGQGVMVTVSSASTKGPSVFPLAPCSRSTSESTAALGCLVKDYFPEPVTVSWNSGALTSGVHTFPAVLQSSGLYSLSSVVTVPSSNFGTQTYTCNVDHKPSNTKVDKTVERKCCVECPPCPAPPVAGPSVFLFPPKPKDTLMISRTPEVTCVVVDVSHEDGEVQFNWYVDGVEVHNAKTKPREEQFNDTFRVVSVLTVVHQDWLNGKEYKCKVSNKGLPAPIEKTISKTKGQPREPQVYTLPPSREEMTKNQVSLTCLVKGFYPSDIAVEWESNGQPENNYKTTPPMLDSDGSFFLYSKLTVDKSRWQQGNVFSCSVMHEALHNHYTQKSLSLSPGKLEPPPSTVSNMATVAVLVVLGAAIVTGAVVAFVMKMRRRNTGGKGGDYALAPGSQTSDLSLPDCKVMVHDPHSLA
notes: as for B1
B7: human IgG2 anti-mouse CD40 surface displayed antibody, P271G/S298L (antibody, name in EU numbering)
light chain (with the P2A rest): DTVLTQSPALAVSPGERVTISCRASDSVSTLMHWYQQKPGQQPKLLIYLASHLESGVPARFSGSGSGTDFTLTIDPVEADDTATYYCQQSWNDPWTFGGGTKLELKRTVAAPSVFIFPPSDEQLKSGTASVVCLLNNFYPREAKVQWKVDNALQSGNSQESVTEQDSKDSTYSLSSTLTLSKADYEKHKVYACEVTHQGLSSPVTKSFNRGECGSGATNFSLLKQAGDVEENPG
heavy chain: EVQLVESDGGLVQPGRSLKLPCAASGFTFSDYYMAWVRQAPTKGLEWVASISYDGSSTYYRDSVKGRFTISRDNAKSTLYLQMDSLRSEDTATYYCGRHSSYFDYWGQGVMVTVSSASTKGPSVFPLAPCSRSTSESTAALGCLVKDYFPEPVTVSWNSGALTSGVHTFPAVLQSSGLYSLSSVVTVPSSNFGTQTYTCNVDHKPSNTKVDKTVERKCCVECPPCPAPPVAGPSVFLFPPKPKDTLMISRTPEVTCVVVDVSHEDGEVQFNWYVDGVEVHNAKTKPREEQFNLTFRVVSVLTVVHQDWLNGKEYKCKVSNKGLPAPIEKTISKTKGQPREPQVYTLPPSREEMTKNQVSLTCLVKGFYPSDIAVEWESNGQPENNYKTTPPMLDSDGSFFLYSKLTVDKSRWQQGNVFSCSVMHEALHNHYTQKSLSLSPGKLEPPPSTVSNMATVAVLVVLGAAIVTGAVVAFVMKMRRRNTGGKGGDYALAPGSQTSDLSLPDCKVMVHDPHSLA
notes: as for B1

This experiment deals with T1, Biotin-FcγRIIB (human FcγRIIB, Sino Biological) (human, UniProt P31994 43-217, limits assumed, biotin-labeled).
T1 construct: Used at 1 µg/ml with Streptavidin-APC for flow cytometry and sorting; also called CD32b
T1 sequence (looked up): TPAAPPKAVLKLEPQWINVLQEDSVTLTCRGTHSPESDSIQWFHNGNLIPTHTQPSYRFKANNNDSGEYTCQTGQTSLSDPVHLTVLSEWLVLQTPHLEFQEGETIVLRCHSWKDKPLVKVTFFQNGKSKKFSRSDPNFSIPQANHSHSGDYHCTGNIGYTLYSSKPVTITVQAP
The experiment can be described thus: NGS after FACS sort of 3T3-displayed LibraryMix for biotin-FcγRIIB binding.
Turning to B1, the “Enrichment factor (percentage after sorting/percentage before sorting)” value turned out to be 32.3 and the “Increased factor (enrichment factor/wild-type enrichment factor)” value was 43.2.

Regarding B2, the “Enrichment factor (percentage after sorting/percentage before sorting)” value is 9.73 and the “Increased factor (enrichment factor/wild-type enrichment factor)” value was found to be 13.

As for B3, the “Enrichment factor (percentage after sorting/percentage before sorting)” value is 10.2 and the “Increased factor (enrichment factor/wild-type enrichment factor)” value was 13.6.

Turning to B4, the “Enrichment factor (percentage after sorting/percentage before sorting)” value is 298 and the “Increased factor (enrichment factor/wild-type enrichment factor)” value came out at 398.

For the molecule B5, the “Enrichment factor (percentage after sorting/percentage before sorting)” value stood at 18 and the “Increased factor (enrichment factor/wild-type enrichment factor)” value was 24.

In the case of B6, the “Enrichment factor (percentage after sorting/percentage before sorting)” value was 6.78 and the “Increased factor (enrichment factor/wild-type enrichment factor)” value was determined as 9.06.

As for B7, the “Enrichment factor (percentage after sorting/percentage before sorting)” value amounted to 188 and the “Increased factor (enrichment factor/wild-type enrichment factor)” value is 252.

The values are drawn from patent US20230220042A1 (SHANGHAI JIAO TONG UNIVERSITY SCHOOL OF MEDICINE, published 2023).
